Target: the molecule itself
Test: non-reducing SDS-PAGE with Western blot; cell-free extracts in Laemmli sample buffer without reducing agent, 10% SDS-PAGE, Western blot with anti-LS and anti-SS antibodies; shows disulfide-linked dimers only

B1: potato ADP-glucose pyrophosphorylase (AGPase) small subunit, wild type (enzyme, potato (S. tuberosum), UniProt P23509 1-521, looked up)
chain: VSDSQNSQTCLDPDASRSVLGIILGGGAGTRLYPLTKKRAKPAVPLGANYRLIDIPVSNCLNSNISKIYVLTQFNSASLNRHLSRAYASNMGGYKNEGFVEVLAAQQSPENPDWFQGTADAVRQYLWLFEEHTVLEYLILAGDHLYRMDYEKFIQAHRETDADITVAALPMDEKRATAFGLMKIDEEGRIIEFAEKPQGEQLQAMKVDTTILGLDDKRAKEMPFIASMGIYVISKDVMLNLLRDKFPGANDFGSEVIPGATSLGMRVQAYLYDGYWEDIGTIEAFYNANLGITKKPVPDFSFYDRSAPIYTQPRYLPPSKMLDADVTDSVIGEGCVIKNCKIHHSVVGLRSCISEGAIIEDSLLMGADYYETDADRKLLAAKGSVPIGIGKNCHIKRAIIDKNARIGDNVKIINKDNVQEAARETDGYFIKSGIVTVIKDALIPSGIII
notes: Small subunit of potato (Solanum tuberosum) tuber ADP-glucose pyrophosphorylase, cDNA in plasmid pML10; as far as I recall it lacks the transit peptide; also called SS; SS^WT; source: E. coli AC70R1-504 (glgC-), plasmid pML10, co-expressed with LS (pML7), in cell-free extract
- stoichiometry N: 2

From doi:10.1101/054106, “Glu-370 in the Large Subunit Influences the Substrate Binding, Allosteric, and Heat Stability Properties of Potato ADP-glucose Pyrophosphorylase” (bioRxiv, 2016)
